# Test results as given in IntAct's records for PubMed 31515488.
# B1: Peroxisomal bifunctional enzyme (Homo sapiens), Q08426 (parent)
# chain: MAEYTRLHNALALIRLRNPPVNAISTTLLRDIKEGLQKAVIDHTIKAIVICGAEGKFSAGADIRGFSAPRTFGLTLGHVVDEIQRNEKPVVAAIQGMAFGGGLELALGCHYRIAHAEAQVGLPEVTLGLLPGARGTQLLPRLTGVPAALDLITSGRRILADEALKLGILDKVVNSDPVEEAIRFAQRVSDQPLESRRLCNKPIQSLPNMDSIFSEALLKMRRQHPGCLAQEACVRAVQAAVQYPYEVGIKKEEELFLYLLQSGQARALQYAFFAERKANKWSTPSGASWKTASARPVSSVGVVGLGTMGRGIVISFARARIPVIAVDSDKNQLATANKMITSVLEKEASKMQQSGHPWSGPKPRLTSSVKELGGVDLVIEAVFEEMSLKKQVFAELSAVCKPEAFLCTNTSALDVDEIASSTDRPHLVIGTHFFSPAHVMKLLEVIPSQYSSPTTIATVMNLSKKIKKIGVVVGNCFGFVGNRMLNPYYNQAYFLLEEGSKPEEVDQVLEEFGFKMGPFRVSDLAGLDVGWKSRKGQGLTGPTLLPGTPARKRGNRRYCPIPDVLCELGRFGQKTGKGWYQYDKPLGRIHKPDPWLSKFLSRYRKTHHIEPRTISQDEILERCLYSLINEAFRILGEGIAASPEHIDVVYLHGYGWPRHKGGPMFYASTVGLPTVLEKLQKYYRQNPDIPQLEPSDYLKKLASQGNPPLKEWQSLAGSPSSKL
# B2: Sodium channel modifier 1 (Homo sapiens), Q9BWG6 (parent)
# chain: MSFKREGDDWSQLNVLKKRRVGDLLASYIPEDEALMLRDGRFACAICPHRPVLDTLAMLTAHRAGKKHLSSLQLFYGKKQPGKERKQNPKHQNELRREETKAEAPLLTQTRLITQSALHRAPHYNSCCRRKYRPEAPGPSVSLSPMPPSEVKLQSGKISREPEPAAGPQAEESATVSAPAPMSPTRRRALDHYLTLRSSGWIPDGRGRWVKDENVEFDSDEEEPPDLPLD
# partner: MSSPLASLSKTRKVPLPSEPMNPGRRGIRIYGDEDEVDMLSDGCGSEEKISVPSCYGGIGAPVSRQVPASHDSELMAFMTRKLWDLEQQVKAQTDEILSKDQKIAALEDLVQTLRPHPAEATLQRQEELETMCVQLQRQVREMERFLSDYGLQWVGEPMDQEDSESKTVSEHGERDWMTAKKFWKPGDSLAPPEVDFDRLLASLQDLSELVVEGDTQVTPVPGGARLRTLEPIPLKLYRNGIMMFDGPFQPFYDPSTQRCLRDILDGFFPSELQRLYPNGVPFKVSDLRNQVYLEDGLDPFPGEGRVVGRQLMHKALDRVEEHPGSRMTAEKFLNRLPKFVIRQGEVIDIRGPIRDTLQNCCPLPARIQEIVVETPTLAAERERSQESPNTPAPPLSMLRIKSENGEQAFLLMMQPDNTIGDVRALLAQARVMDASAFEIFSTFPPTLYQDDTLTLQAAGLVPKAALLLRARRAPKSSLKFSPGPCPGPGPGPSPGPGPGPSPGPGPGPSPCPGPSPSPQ
# B3: Progranulin (Homo sapiens), P28799 (parent)
# chain: MWTLVSWVALTAGLVAGTRCPDGQFCPVACCLDPGGASYSCCRPLLDKWPTTLSRHLGGPCQVDAHCSAGHSCIFTVSGTSSCCPFPEAVACGDGHHCCPRGFHCSADGRSCFQRSGNNSVGAIQCPDSQFECPDFSTCCVMVDGSWGCCPMPQASCCEDRVHCCPHGAFCDLVHTRCITPTGTHPLAKKLPAQRTNRAVALSSSVMCPDARSRCPDGSTCCELPSGKYGCCPMPNATCCSDHLHCCPQDTVCDLIQSKCLSKENATTDLLTKLPAHTVGDVKCDMEVSCPDGYTCCRLQSGAWGCCPFTQAVCCEDHIHCCPAGFTCDTQKGTCEQGPHQVPWMEKAPAHLSLPDPQALKRDVPCDNVSSCPSSDTCCQLTSGEWGCCPIPEAVCCSDHQHCCPQGYTCVAEGQCQRGSEIVAGLEKMPARRASLSHPRDIGCDQHTSCPVGQTCCPSLGGSWACCQLPHAVCCEDRQHCCPAGYTCNVKARSCEKEVVSAQPATFLARSPHVGVKDVECGEGHFCHDNQTCCRDNRQGWACCPYRQGVCCADRRHCCPAGFRCAARGTKCLRREAPRWDAPLRDPALRQLL
# Variants of: B1
# Details: with tpp2_human TPP2, P29144
row,effect of a mutation on the interaction,Variant
1,with no effect,S703F
2,with no effect,R556G
3,disrupting interaction strength,R483Q
4,with no effect,L715S

# Variants of: B1
# Details: with actb_human ACTB
row,effect of a mutation on the interaction,Variant
1,with no effect,S703F
2,with no effect,R556G
3,disrupting interaction strength,R483Q
4,with no effect,L715S

# Variants of: B1
# Details: with actg_human ACTG1, P63261
row,effect of a mutation on the interaction,Variant
1,with no effect,S703F
2,with no effect,R556G
3,disrupting interaction strength,R483Q
4,with no effect,L715S

# Variants of: B1
# Details: with tnip1_human TNIP1, Q15025
# Chain of tnip1_human TNIP1, Q15025 (Q15025 whole entry): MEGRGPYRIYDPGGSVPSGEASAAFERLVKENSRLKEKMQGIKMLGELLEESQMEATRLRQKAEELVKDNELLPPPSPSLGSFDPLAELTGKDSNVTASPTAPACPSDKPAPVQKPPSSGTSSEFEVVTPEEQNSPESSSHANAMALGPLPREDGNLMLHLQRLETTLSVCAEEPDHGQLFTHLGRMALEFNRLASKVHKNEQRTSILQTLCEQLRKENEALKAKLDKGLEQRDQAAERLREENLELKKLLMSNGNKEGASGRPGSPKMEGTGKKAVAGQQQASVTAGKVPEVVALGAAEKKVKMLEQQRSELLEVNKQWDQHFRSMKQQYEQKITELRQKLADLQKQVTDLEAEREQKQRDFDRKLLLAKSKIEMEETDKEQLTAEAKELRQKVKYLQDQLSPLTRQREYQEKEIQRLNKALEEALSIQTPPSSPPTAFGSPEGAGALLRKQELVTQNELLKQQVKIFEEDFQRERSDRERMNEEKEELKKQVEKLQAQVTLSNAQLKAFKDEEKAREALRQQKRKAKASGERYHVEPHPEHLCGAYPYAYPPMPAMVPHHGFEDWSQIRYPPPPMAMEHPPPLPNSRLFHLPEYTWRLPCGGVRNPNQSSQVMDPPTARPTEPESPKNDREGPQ
row,effect of a mutation on the interaction,Variant
1,with no effect,S703F
2,with no effect,R483Q
3,with no effect,L715S

# Variants of: B1
# Details: with fund1_human FUNDC1, Q8IVP5
# Chain of fund1_human FUNDC1, Q8IVP5 (Q8IVP5 whole entry): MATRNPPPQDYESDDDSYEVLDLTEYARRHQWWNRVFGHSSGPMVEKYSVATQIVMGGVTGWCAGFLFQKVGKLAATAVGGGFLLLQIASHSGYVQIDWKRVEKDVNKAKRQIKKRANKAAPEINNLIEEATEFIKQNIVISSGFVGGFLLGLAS
row,effect of a mutation on the interaction,Variant
1,disrupting interaction strength,Q685K

# Variants of: B1
# Details: with tri41_human TRIM41, Q8WV44
row,effect of a mutation on the interaction,Variant
1,with no effect,Q685K

# Variants of: B1
# Details: with CCDC102B
row,effect of a mutation on the interaction,Variant
1,with no effect,Q685K

# Variants of: B2
# Details: with ubx11_human UBXN11, Q5T124
row,effect of a mutation on the interaction,Variant
1,with no effect,A174V

# Variants of: B3
# Details: with sgta_human SGTA
row,effect of a mutation on the interaction,Variant
1,with no effect,R19W

# Variants of: B3
# Details: with otx1_human OTX1, P32242
# Chain of otx1_human OTX1, P32242 (P32242 whole entry): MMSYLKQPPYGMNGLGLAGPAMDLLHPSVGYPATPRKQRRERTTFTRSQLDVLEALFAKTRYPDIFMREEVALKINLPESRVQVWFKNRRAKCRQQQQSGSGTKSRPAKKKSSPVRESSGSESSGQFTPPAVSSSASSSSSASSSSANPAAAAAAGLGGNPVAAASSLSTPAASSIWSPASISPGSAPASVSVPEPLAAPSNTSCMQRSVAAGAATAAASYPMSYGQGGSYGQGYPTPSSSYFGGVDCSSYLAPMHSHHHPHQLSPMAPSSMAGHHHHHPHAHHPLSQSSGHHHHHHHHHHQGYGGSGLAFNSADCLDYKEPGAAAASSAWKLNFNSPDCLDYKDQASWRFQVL
row,effect of a mutation on the interaction,Variant
1,with no effect,R19W

# Variants of: B3
# Details: with hxa1_human HOXA1, P49639
# Chain of hxa1_human HOXA1, P49639 (P49639 whole entry): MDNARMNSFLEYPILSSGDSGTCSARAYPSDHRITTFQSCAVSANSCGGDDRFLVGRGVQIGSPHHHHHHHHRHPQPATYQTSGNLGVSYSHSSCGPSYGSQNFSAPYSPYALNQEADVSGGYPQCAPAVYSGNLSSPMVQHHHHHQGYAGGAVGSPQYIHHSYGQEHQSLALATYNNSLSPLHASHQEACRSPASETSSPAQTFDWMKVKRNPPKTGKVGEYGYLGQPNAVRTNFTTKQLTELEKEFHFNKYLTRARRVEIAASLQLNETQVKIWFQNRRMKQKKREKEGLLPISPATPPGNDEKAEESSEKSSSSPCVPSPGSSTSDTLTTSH
row,effect of a mutation on the interaction,Variant
1,with no effect,D536E

# Variants of: B3
# Details: with glrx3_human GLRX3, O76003
# Chain of glrx3_human GLRX3, O76003 (O76003 whole entry): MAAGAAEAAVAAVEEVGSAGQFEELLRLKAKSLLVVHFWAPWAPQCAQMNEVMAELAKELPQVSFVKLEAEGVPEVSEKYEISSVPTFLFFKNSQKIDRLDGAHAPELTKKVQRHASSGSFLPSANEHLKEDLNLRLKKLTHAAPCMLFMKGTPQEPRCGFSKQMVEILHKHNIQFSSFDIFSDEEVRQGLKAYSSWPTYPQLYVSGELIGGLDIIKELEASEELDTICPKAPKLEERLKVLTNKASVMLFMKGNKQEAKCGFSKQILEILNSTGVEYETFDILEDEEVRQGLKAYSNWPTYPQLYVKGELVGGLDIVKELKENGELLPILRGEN
row,effect of a mutation on the interaction,Variant
1,with no effect,D536E
